Patent US20250333531A1 (NORDIC NANOVECTOR ASA, published 2025)
Residue numbers refer to the chain shown, from its start. Numbers in names are those of the source. Blank lines part the entries; values can stand above or below the binder they belong to.

What was measured:
human CD37 [1] = biological target: T1, human CD37 (human, UniProt P11049 1-281); test: competitive radioligand binding on Ramos cells; upper end tied by Table 18 to AH02895
T1 construct: whole, on cells; also called CD37 antigen
T1 sequence (looked up): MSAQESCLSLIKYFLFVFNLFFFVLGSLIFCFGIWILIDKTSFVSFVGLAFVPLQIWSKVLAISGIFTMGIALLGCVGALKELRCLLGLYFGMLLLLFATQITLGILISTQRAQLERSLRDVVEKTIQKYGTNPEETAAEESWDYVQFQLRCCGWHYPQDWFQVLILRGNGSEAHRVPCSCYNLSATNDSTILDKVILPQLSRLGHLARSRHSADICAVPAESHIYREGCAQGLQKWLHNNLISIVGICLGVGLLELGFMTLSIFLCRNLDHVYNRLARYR

human CD37 [2] = biological target: T1, human CD37; test: competitive radioligand binding on Ramos cells against 177Lu-NNV009 (2.7 nM), gamma counting
Method: (§1) The Eppendorf LoBind tubes 1.5 mL were used to prepare dilutions (working concentrations) of Abs. As much as 0.2 mL of the cell suspension (800 000 cells/tube), after it has been cooled down for 30 min on ice, was aliquoted to glass 12×75 mm counting tubes. Each tube was pre-labeled with a code specifically determining each sample. The tubes with cells were maintained on ice for whole time course of the experiment except for the time when counted on the gamma counter. The tubes were agitated on a planetary shaker at 350 RPM, 4° C. (on ice) for 15 min. […] The tubes were placed on the planetary shaker (GL 064), on ice, and shaken for 4 hours at 350 RPM. After 3.5 hours past from the beginning of incubation, the samples were assayed on Wizard2 gamma counter using protocol “Lu-177 General” (all detectors except for the detector #3 were used). Upon completion the counting, the cells were washed with ice-cold 0.5 mL 0.5% BSAPBS three times. All the tubes were assayed on the Wizard2 gamma counter again using the same sequence and parameters as before the washing.

human CD37 [3] = biological target: T1, human CD37; test: competitive radioligand binding on Ramos cells; ratio to Ki of NNV009 (assumed 2.3)
Method: as §1

human CD37 [4] = biological target: T1, human CD37; test: competitive radioligand binding on Ramos cells; lower end tied by Table 18 to AH02871HC + AH02877LC + V110D
[5] = biological target: FcγRIIIa-V158 on Promega Jurkat effector cells (UniProt P08637 17-254, limits assumed); test: cell-based or functional assay
[6] = biological target: T2, biotinylated truncated soluble human FcγRIIa-H131 (human, UniProt P12318 34-217, biotinylated); test: ELISA: IgG coated at 10000-4.5 ng/ml, biotinylated truncated soluble human FcγRIIa-H131 250 ng/ml pre-complexed with AP-streptavidin, absorbance 405 nm
T2 construct: extracellular domain; Bought
T2 sequence (looked up): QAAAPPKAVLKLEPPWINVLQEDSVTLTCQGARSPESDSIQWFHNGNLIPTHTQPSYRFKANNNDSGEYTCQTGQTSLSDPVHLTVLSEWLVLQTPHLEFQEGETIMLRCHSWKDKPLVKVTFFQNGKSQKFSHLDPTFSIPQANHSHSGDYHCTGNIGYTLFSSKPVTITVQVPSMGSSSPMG
Method: (§2) 96 well EIA/RIA plates (CorningCostar) were coated with 100 μl titrated amounts of IgG variants (10.000-4.5 ng/ml) diluted in PBS and incubated O/N at 4° C. Remaining surface area were blocked with PBS containing 0.05% T and 4% S for 1 h at RT. The plates were washed four times with PBS/T using a Hydrospeed™ plate washer (Tecan). […] Following washing as above, bound receptor was visualized by addition of phosphatase substrate (1 mg/ml in diethanolamine buffer) (Sigma Aldrich). The plates were developed for 15-20 min before the 405 nm absorption values were recorded using a TECAN Sunrise spectrophotometer (Tecan).

[7] = biological target: T3, biotinylated truncated soluble human FcγRIIa-R131 (human, UniProt P12318 34-217, biotinylated); test: ELISA: IgG coated at 10000-4.5 ng/ml, biotinylated truncated soluble human FcγRIIa-R131 250 ng/ml pre-complexed with AP-streptavidin, absorbance 405 nm
T3 construct: extracellular domain; Bought
T3 sequence (looked up): T2 sequence (looked up) with H134R
Method: as §2

[8] = biological target: T4, biotinylated soluble human FcRn (human, UniProt P55899 24-297; P61769 21-119, biotinylated); test: ELISA: IgG coated at 1000-0.45 ng/ml, biotinylated soluble human FcRn 250 ng/ml pre-complexed with AP-streptavidin, pH 6.0, absorbance 405 nm
T4 construct: extracellular domain; Bought; Beta-2-microglobulin is not mentioned; Used as preformed complex with AP-streptavidin
Method: Remaining surface area were blocked with PBS containing 0.05% T and 4% S for 1 h at RT. The plates were washed four times with PBS/T using a Hydrospeed™ plate washer (Tecan). […] Following washing as above with PBS/T or FcRn binding buffer ([…], 0.1 M NaCl, 0.05% T, pH 6.0), bound receptor was visualized by addition of phosphatase substrate (1 mg/ml in diethanolamine buffer) (Sigma Aldrich). The plates were developed for 20-30 min before the 405 nm absorption values were recorded using a TECAN Sunrise spectrophotometer (Tecan).

[9] = biological target: T5, biotinylated truncated soluble human FcγRIIIa-V158 (human, UniProt P08637 17-208, biotinylated); test: ELISA: IgG coated at 10000-4.5 ng/ml, biotinylated truncated soluble human FcγRIIIa-V158 250 ng/ml pre-complexed with AP-streptavidin, absorbance 405 nm
T5 construct: extracellular domain; Bought
Method: as §2

[10] = biological target: T6, human complement factor C1q (human, UniProt P02745 23-245; P02746 28-253; P02747 29-245); test: ELISA: IgG coated at 20000-156.25 ng/ml, human C1q 360 ng/ml, detected with rabbit anti-human C1q and HRP anti-rabbit IgG (y axis printed as Absorbance 405 nm)
T6 construct: Bought
Method: (§3) Remaining surface area were blocked with PBS containing 0.05% T and 4% S for 1 h at RT. The plates were then washed four times with PBS/T using a Hydrospeed™ plate washer (Tecan). Human C1q (Complement Technologies) diluted to 360 ng/ml in veronal buffer (Complement Technologies) were added and incubated for 30 min at 37° C. Detection of bound C1q was performed using a primary anti-human C1q antibody from rabbit (DAKO) diluted 1:10.000 in PBS/T/S and a secondary horseradish peroxidase (HRP) conjugated anti-rabbit IgG antibody diluted 1:5000 in PBS/T/S (GE Healthcare). Binding was visualized by addition of 100 μl TMB substrate (Calbiochem) for 15-20 min before the enzymatic reaction was stopped by addition of 50 μl 1 M HC1. The 450 nm absorption values were recorded using a Sunrise TECAN spectrophotometer (Tecan).

[11] = biological target: T7, biotinylated truncated soluble human FcγRIIb (human, UniProt P31994 43-217, biotinylated); test: ELISA: IgG coated at 10000-4.5 ng/ml, biotinylated truncated soluble human FcγRIIb 250 ng/ml pre-complexed with AP-streptavidin, absorbance 405 nm
T7 construct: extracellular domain; Bought
T7 sequence (looked up): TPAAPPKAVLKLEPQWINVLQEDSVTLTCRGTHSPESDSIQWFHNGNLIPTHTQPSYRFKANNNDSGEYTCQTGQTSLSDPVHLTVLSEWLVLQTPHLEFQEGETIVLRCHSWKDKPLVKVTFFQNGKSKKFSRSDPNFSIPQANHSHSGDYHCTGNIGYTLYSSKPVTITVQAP
Method: as §2

[12] = biological target: T8, biotinylated truncated soluble human FcγRIIIa-F158 (human, UniProt P08637 17-208, biotinylated); test: ELISA: IgG coated at 10000-4.5 ng/ml, biotinylated truncated soluble human FcγRIIIa-F158 250 ng/ml pre-complexed with AP-streptavidin, absorbance 405 nm
T8 construct: extracellular domain; Bought
Method: as §2

[13] = biological target: T9, biotinylated truncated soluble human FcγRI (human, UniProt P12314 16-292, biotinylated); test: ELISA: IgG coated at 10000-4.5 ng/ml, biotinylated truncated soluble human FcγRI 250 ng/ml pre-complexed with AP-streptavidin, absorbance 405 nm
T9 construct: extracellular domain; Bought; preformed complex with AP-streptavidin
Method: as §2

[14] = biological target: T10, biotinylated truncated soluble human FcγRIIIb (human, UniProt O75015 17-200, limits assumed, biotinylated); test: ELISA: IgG coated at 10000-4.5 ng/ml, biotinylated truncated soluble human FcγRIIIb 250 ng/ml pre-complexed with AP-streptavidin, absorbance 405 nm
T10 construct: extracellular domain; Bought
Method: as §2

[15] = biological target: T6, human complement factor C1q; test: repeat ELISA: IgG coated at 20000-156.25 ng/ml, human C1q 360 ng/ml, detected with rabbit anti-human C1q and HRP anti-rabbit IgG (y axis printed as Absorbance 405 nm)
Method: as §3

human CD37 [16] = biological target: T1, human CD37; test: reference to the competitive binding of Example 6

T6 sequence (P02745 23-245 limits assumed, chain 1 of 3): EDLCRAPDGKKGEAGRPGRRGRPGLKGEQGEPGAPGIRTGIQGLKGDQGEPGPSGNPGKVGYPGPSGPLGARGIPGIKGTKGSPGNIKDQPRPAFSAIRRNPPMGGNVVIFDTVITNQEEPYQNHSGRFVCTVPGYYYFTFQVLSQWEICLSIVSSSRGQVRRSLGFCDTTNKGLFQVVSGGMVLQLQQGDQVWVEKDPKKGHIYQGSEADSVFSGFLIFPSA
T6 sequence (P02746 28-253 limits assumed, chain 2 of 3): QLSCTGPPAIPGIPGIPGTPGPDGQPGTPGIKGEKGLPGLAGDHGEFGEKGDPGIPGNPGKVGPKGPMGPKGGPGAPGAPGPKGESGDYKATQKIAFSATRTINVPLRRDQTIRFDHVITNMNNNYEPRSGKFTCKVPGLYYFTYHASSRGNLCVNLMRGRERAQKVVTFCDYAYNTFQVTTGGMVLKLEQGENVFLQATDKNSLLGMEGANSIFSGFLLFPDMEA
T6 sequence (P02747 29-245 limits assumed, chain 3 of 3): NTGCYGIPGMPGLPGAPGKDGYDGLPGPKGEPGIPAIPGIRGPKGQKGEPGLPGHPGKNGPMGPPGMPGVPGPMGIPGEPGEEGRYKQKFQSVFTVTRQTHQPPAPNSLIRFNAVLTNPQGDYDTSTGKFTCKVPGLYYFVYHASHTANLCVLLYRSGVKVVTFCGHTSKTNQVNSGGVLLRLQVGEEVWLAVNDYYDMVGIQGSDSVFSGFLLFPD
T9 sequence (P12314 16-292): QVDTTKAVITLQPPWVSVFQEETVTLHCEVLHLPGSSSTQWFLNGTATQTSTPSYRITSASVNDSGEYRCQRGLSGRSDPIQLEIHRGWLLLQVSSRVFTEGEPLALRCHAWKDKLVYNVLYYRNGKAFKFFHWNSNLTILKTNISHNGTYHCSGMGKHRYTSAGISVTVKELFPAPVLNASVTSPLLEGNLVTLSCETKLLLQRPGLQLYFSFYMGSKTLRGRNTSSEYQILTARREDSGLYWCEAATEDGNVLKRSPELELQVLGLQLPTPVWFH
T10 sequence (O75015 17-200 limits assumed): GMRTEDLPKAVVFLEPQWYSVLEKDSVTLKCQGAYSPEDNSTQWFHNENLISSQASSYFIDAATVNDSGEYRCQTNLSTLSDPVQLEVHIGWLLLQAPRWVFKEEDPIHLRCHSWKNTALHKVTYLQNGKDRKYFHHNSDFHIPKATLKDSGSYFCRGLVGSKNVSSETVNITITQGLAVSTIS

fold affinity relative to NNV009 (human CD37 [1]): 4 to 7 fold
EC50 (human CD37 [2]): 718 pM
Ki (human CD37 [2]): 330 pM
Ki(NNV009)/Ki(NNV020 var.) (human CD37 [3]): 6.97 fold
B1: AH02895 (antibody, human IgG1, kappa, V domains shown)
VH: QIQLVQSGAEVVKPGASVKVSCKASGYSFTDYNMYWVKQAPGQRLEWMGYIDPYNGDTTYNQKFKGRATITRDTSASTAYIELSSLRSEDTAVYYCARSPYGHYAMDYWGQGTLVTVSS
VL: DIQMTQSPSSLSASVGDRVTITCKASQDVSTAVDWYQQKPGKAPKLLINWASTRHTGVPSRFSGSGSGTDYTLTISSMQPEDFATYYCRQHYSTPFTFGQGTKLEIKR
notes: Humanized IgG1 kappa; also called NNV020 #6

EC50 (human CD37 [2]): 1240 pM
Ki (human CD37 [2]): 571 pM
Ki(NNV009)/Ki(NNV020 var.) (human CD37 [3]): 4.03 fold
fold affinity relative to NNV009 (human CD37 [4]): 4 to 7 fold
average potency of the ADCC response (Example 13) [5]: 3000 pM
efficacy (Emax) relative to NNV024, ADCC FcγRIIIa-158V reporter assay [5]: 75%
potency (EC50) relative to rituximab, ADCC FcγRIIIa-158V reporter assay [5]: ~7 fold
B2: NNV023 (antibody, human IgG1)
heavy: not shown
light: DIQMTQSPSSLSASVGDRVTITCKASQDVSTAVDWYQQKPGKSPKLLINWASTRHTGVPSRFSGSGSGTDYTLTISSLQPEDFATYYCRQHYSTPFTFGQGTKLEIKRTDAAPSVFIFPPSDEQLKSGTASVVCLLNNFYPREAKVQWKVDNALQSGNSQESVTEQDSKDSTYSLSSTLTLSKADYEKHKVYACEVTHQGLSSPVTKSFNRGEC
notes: Humanized IgG1 kappa, fucosylated; also called AH02871HC + AH02877LC + V110D; AH02871HC_2877LC-110D

EC50 (read off the curve) [6]: ~0.3 µg/mL
EC50 (read off the curve) [7]: ~0.8 µg/mL
EC50 (read off the curve) [8]: ~0.04 µg/mL
EC50 (read off the curve) [9]: ~0.6 µg/mL
EC50 (read off the curve) [10]: ~3 µg/mL
EC50 (read off the curve) [11]: ~0.7 µg/mL
EC50 (read off the curve) [12]: ~0.2 µg/mL
EC50 (read off the curve) [13]: ~0.4 µg/mL
EC50 (read off the curve) [14]: ~0.4 µg/mL
EC50 (read off the curve) [15]: ~2 µg/mL
binding result (human CD37 [16]): binds
ADCC signaling at 1 µg/mL relative to obinutuzumab, patient-derived CLL cells [5]: ~3 fold
average Emax relative to rituximab, ADCC FcγRIIIa-158V reporter assay, ten B-NHL cell lines [5]: 1.36 fold
average potency (EC50) relative to rituximab, ADCC FcγRIIIa-158V reporter assay [5]: 35.5 fold
average potency of the ADCC response (Example 13) [5]: 600 pM
B3: NNV024 (antibody, human IgG1)
heavy: not shown
light: B2 light
modifications: afucosylated N-glycan (GlymaxX technology)
notes: Humanized IgG1 kappa, same chains as NNV023, afucosylated; also called afucosylated NNV023; AH02871HC_2877LC-110D GlymaxX
